Measurements as given in patent US20120094898A1, “PEPTIDE DERIVATIVE” (Takeda Pharmaceutical Company Limited, priority 2010, published 2012).
Non-standard residues stand in square brackets, D forms with d. Primed or numbered codes have the meaning given here. *: point of attachment. Acetyl(2-(piperazin-1-yl)) = O=C(CN1CCNCC1)*; 2Nal = N[C@@H](Cc1ccc2ccccc2c1)C(=O)O; Pic(4) = not defined here; NMeA = CN[C@@H](C)C(=O)O; Ahx = NCCCCCC(=O)O

Key:
[1] = biological target: T1, human NMUR1 (Homo sapiens, UniProt Q9HB89); assay: Ca influx assay using CHO cells expressing human NMUR1; type: cell-based; conditions: CHO cells stably expressing human NMUR1; intracellular Ca elevation, FLIPR Tetra; relative to 1 μM porcine NMU-8; read-out: hNMUR1 EC50
T1 construct: expressed in transfected cells
T1 sequence (Q9HB89 1-426): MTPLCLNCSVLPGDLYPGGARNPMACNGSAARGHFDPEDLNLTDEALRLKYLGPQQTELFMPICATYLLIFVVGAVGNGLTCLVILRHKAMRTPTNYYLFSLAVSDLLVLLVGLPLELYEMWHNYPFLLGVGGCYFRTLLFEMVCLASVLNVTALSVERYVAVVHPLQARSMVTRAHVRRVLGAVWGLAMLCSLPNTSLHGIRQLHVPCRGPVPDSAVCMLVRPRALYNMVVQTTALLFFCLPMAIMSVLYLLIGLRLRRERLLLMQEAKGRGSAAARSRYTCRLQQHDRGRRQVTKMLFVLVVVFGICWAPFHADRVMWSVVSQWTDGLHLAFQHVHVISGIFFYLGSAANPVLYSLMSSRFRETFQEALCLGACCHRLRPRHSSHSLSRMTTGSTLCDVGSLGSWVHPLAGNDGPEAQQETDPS
Protocol: (§1) Ca Influx Assay Using CHO Cells Expressing Human NMUR1 or NMUR2
(§2) CHO cells stably expressing human NMUR1 or NMUR2 (J Biol Chem 275(28), pp. 21068-21074 (2000); and J Biol Chem 275(38), pp. 29528-29532 (2000)) were seeded onto a 384-well black/clear plate (Becton Dickinson) (10,000 cells per well) using nucleic acid-free MEM-α medium (Nikken Bio Medical Laboratory) containing 10% dialyzed blood serum (Gemini Bio Products) and 50 μg/mL gentamycin (Invitrogen), and cultured overnight in 5% carbon dioxide at 37° C. Then, after removal of the medium, the cells were loaded with Calcium Kit-Fluo 4 (Dojindo) containing 0.1% fatty acid-free BSA (Wako) at 37° C. (for 15 minutes). Further, test compounds at each concentration, as well as 1 μmol/L porcine NMU-8 (BACHEM) as a control group, were added to the cells, and an elevation of intracellular Ca concentration was monitored for 3 minutes using a FLIPR Tetra system (Molecular Devices). The agonist activity (%) of each of the test compounds for NMUR was calculated using the following formula: […]
(§3) wherein W represents a fluorescence value based on the intracellular Ca concentration in cells to which each test compound was added; X represents a fluorescence value based on the intracellular Ca concentration in cells to which only 0.1% DMSO was added; and Y represents a fluorescence value based on the intracellular Ca concentration in cells to which 1 μM porcine NMU-8 was added. The EC50 value of each test compound was calculated using Prism 5 (GraphPad).

[2] = biological target: T2, human NMUR2 (Homo sapiens, UniProt Q9GZQ4); assay: Ca influx assay using CHO cells expressing human NMUR2; type: cell-based; conditions: CHO cells stably expressing human NMUR2; intracellular Ca elevation, FLIPR Tetra; relative to 1 μM porcine NMU-8; read-out: hNMUR2 EC50
T2 construct: expressed in transfected cells
T2 sequence (Q9GZQ4 whole entry): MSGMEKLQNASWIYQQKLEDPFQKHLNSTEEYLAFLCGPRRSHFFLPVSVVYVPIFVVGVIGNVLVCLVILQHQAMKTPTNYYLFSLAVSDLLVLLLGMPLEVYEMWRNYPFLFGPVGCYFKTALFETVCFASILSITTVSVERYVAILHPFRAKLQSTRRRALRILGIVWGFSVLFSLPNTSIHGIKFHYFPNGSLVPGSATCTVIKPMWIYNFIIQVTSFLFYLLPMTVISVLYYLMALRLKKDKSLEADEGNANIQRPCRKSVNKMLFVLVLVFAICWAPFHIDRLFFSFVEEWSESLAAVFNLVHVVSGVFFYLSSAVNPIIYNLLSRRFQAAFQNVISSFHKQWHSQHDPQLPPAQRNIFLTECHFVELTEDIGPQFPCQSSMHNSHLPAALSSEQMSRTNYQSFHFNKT
Protocol: as §1, §2, §3

[3] = tested on: male C57BL/6J mice; assay: Subcutaneous administration test in mice (anorectic activity, food intake); type: in vivo; conditions: 600 nmol/kg/day subcutaneous, food intake 1 day after initiation of administration, vs solvent control
Protocol: Subcutaneous Administration Test in Mice Anorectic activity of the test compounds was evaluated by the following method. Each of the test compounds was dissolved in a solvent (physiological saline), and an amount of 600 nmol/kg/day was used. An amount of 2 mL/Kg of an administration liquid obtained by dissolving each test compound in physiological saline was subcutaneously administered to the back of 9- to 10-week-old male C57BL/6J mice (CLEA Japan, Inc.) (at 25° C., having free access to food and water, 12 hours of light period and 12 hours of dark period). After the administration, the mice were returned to breeding cages (individual feeding), pre-weighed food was given, and the food intake 1 day after the initiation of the administration was measured. The food intake was calculated by subtracting the weight of the food remaining from the weight of the food given on the day the administration was initiated. Based on the calculated food intake, the anorectic ratio (%) of each test compound was calculated using the following formula. […] The group where only the solvent was administered as described above was used as a control group. Food Intake Inhibition (%): {(food intake of the control group−food intake of a test compound administration group)/food intake of the control group}×100

[4] = tested on: cynomolgus monkeys; assay: Single subcutaneous administration test in monkeys (emetic response); type: in vivo
Protocol: Single Subcutaneous Administration Test in Monkeys
The emetic response induced by the test compounds was evaluated by the following method.
The test compound C was dissolved in physiological saline at a concentration of 1,000 nmol/kg and the test compound D was dissolved in physiological saline at a concentration of 300 nmol/kg, and used separately. An administration liquid obtained by dissolving each test compound in physiological saline was subcutaneously administered to the back of cynomolgus monkeys (2 males and 2 females each, 3 years and 11 months old to 4 years and 4 months old). After the administration, the animals were immediately returned to their individual cages, and videotaped for 10 hours. Vomiting and dry heaves observed during the videotaping were counted. Vomits were counted as the number of instances of vomiting up to 24 hours after the completion of the videotaping.

“PEG20k(AL)-Acp0,Nal(2)2,NMeAla6-NMU-8 ({PEG20k(AL)-Ahx}-Y[2Nal]LFR[NMeA]RN-NH2) [Compound G, PEG20k(AL)-Acp-Tyr-Nal(2)-Leu-Phe-Arg-NMeAla-Arg-Asn-NH2]” was tested, and the EC50 [1] was 0.17 µM, the EC50 [2] was 0.0059 µM and the “Food intake Inhibition” value [3] was 71.4%.

In the case of “PEG20k(AL)-NpipAc0,Nal(2)2,Ala6-NMU-8 ({PEG20k(AL)-Acetyl(2-(piperazin-1-yl))}-Y[2Nal]LFRARN-NH2) [Compound D, PEG20k(AL)-NpipAc-Tyr-Nal(2)-Leu-Phe-Arg-Ala-Arg-Asn-NH2]”, the EC50 [1] is reported as > 1 µM, the EC50 [2] is reported as 0.0088 µM and the “No. of vomiting (0-24 h)” value ([4]; 300 nmol/kg single subcutaneous, n = 4 (2 males, 2 females)) is reported as 0. For the same substance, the “emetic response (vomiting), result in words” value ([4]; single subcutaneous, C 1,000 nmol/kg, D 300 nmol/kg) was “prevent vomiting” and the “Food intake Inhibition” value [3] was 70.5%.

For “PEG20k(AL)-PEG(2)0,Nal(2)2,NMeAla6-NMU-8 ({PEG20k(AL)-PEG(2)}-Y[2Nal]LFR[NMeA]RN-NH2) [PEG20k(AL)-PEG(2)-Tyr-Nal(2)-Leu-Phe-Arg-NMeAla-Arg-Asn-NH2]”, the EC50 [1] was > 1 µM, the EC50 [2] was 0.039 µM and the “Food intake Inhibition” value [3] was 68.6%.

In the case of “PEG20k(AL)-Pic(4)0,Nal(2)2,NMeAla6-NMU-8 ({PEG20k(AL)-Pic(4)}-Y[2Nal]LFR[NMeA]RN-NH2; reading uncertain) [Compound F, PEG20k(AL)-Pic(4)-Tyr-Nal(2)-Leu-Phe-Arg-NMeAla-Arg-Asn-NH2]”, the EC50 [1] is reported as > 1 µM, the EC50 [2] is reported as 0.054 µM and the “Food intake Inhibition” value [3] is reported as 74.3%.
